{"source": "patent US10808017B2", "about": "“Ubiquitin variants and uses therof as 53BP1 inhibitors” (The Governing Council of the University of Toronto, priority 2016, dated 2020)", "key": {"[1]": {"tested_on": "BFP transgene in 293T cells", "test": "ssODN-based BFP-to-GFP HR assay", "type": "cell-based", "conditions": "AAV-DJ transduced 293T cells, Cas9 RNP, 4 d, versus i53-DM", "excerpt": "FIG. 11. 53BP1 inhibition by i53 stimulates ssODN-mediated homologous recombination. FIG. 11A, Schematic of the BFP-to-GFP conversion assay. Cells carrying a stably integrated BFP transgene are transfected with Cas9 ribonucleoproteins (RNPs) programmed with a gRNA against the BFP coding sequence along with an ssODN that converts 3 nucleotides of BFP into those that produce a GFP protein upon successful HR-mediated repair. FIG. 11B-C, 293T cells that were first transduced with AAV-DJ1 vectors coding for i53-DM or i53 with the BFP transgene were nucleofected with Cas9 RNPs and optimal (b) and suboptimal (c) ssODN repair donors that convert BFP to GFP. 4 d after nucleofection, GFP fluorescence was monitored by flow cytometry. […] 3 d post-nucleofection, genomic DNA was isolated and the presence of the Pcil restriction fragment length polymorphism (RFLP) was determined by restriction digest on PCR-amplified genomic DNA. […]\nThe BFP-to-GFP assay was performed essentially as described Richardson CD et al, Nat Biotechnol. […] After 4 days, BFP and GFP fluorescence were measured by flow cytometry on a BD Fortessa, and analyzed with FlowJo v10 software. […]"}, "[2]": {"tested_on": "gene conversion (HR) in U2OS DR-GFP cells", "test": "Direct-repeat (DR)-GFP gene conversion assay", "type": "cell-based, human", "description": "FIG. 4. Activation of HR by i53. FIG. 4A, Schematic of the DR-GFP assay. FIG. 4B. U2OS DR-GFP cells were transfected with the vectors expressing i53, the DM mutant or an empty vector control (EV) along with an I-Scel expression vector. The percentage of GFP-positive cells was determined 48 h post-transfection for each condition and was normalized to the empty vector condition (mean±s.d., N=4). FIG. 4C, U2OS DR-GFP were first transfected with siRNAs targeting the 53BP1 or BRCA1 mRNAs along with a non-targeting siRNA (CTRL). 24 h post-transfection, cells were transfected with the I-SceI expression vector and the percentage of GFP-positive cells was determined 48 h post-siRNA transfection for each condition. The values were normalized to the empty vector condition and presented as the mean±s.e.m; N=4. FIG. 4D, Schematic of the gene targeting assay. FIG. 4E, Gene targeting efficiency at the LMNA locus in parental or 53BP1Δ U2OS cells following transfection with vectors expressing Flag-tagged i53 or its DM mutant or an empty vector control (EV). The DNA-PK inhibitor NU7441 was also added where indicated. 24 h post-transfection, cells were analysed for mClover fluorescence. Individual experiments are presented with the error bar representing the s.d., (N=3). FIG. 4F, Gene targeting at the LMNA locus in G 1-arrested parental (WT) or 53BP1Δ U2OS cells transfected with vectors expressing Flag-tagged i53 or its DM mutant or an empty vector control (EV). The DNA-PK inhibitor NU7441 was also added in the indicated conditions. 24 h post-transfection, cells were analysed for mClover fluorescence. Individual experiments are present with the error bar representing the s.d., (N=3).\nThe direct repeat (DR)-GFP assay to measure the frequency of HR and the strand annealing EJ2-GFP assay to measure the frequency of MMEJ were performed as previously described. Briefly, U2OS DR-GFP or U2OS EJ2-GFP cells were transfected with 10 nM siRNA (Dharmacon) using Lipofectamine RNAiMAX (Invitrogen). 24 h later, the cells were transfected with the pCBASceI plasmid (Addgene #26477) and plasmids, using Lipofectamine 2000 (Invitrogen). 48 h post-plasmid transfection, the cells were trypsinized and the percentage of GFP-expressing cells was analyzed using the BD FACSCalibur flow cytometer.\nAAV-293 cells (Agilent) were transfected with pAAV expression, pDJ and pHelper constructs (Cell Biolabs, Inc., USA) in equal amounts using PEI to produce AAV-DJ expression viruses. 48-72 h later, the viral supernatant was used to transduce target cells for 24 h, and assays were initiated a further 24 h later."}}, "note": "Entries after “also recorded” stand apart in the source; their conditions may differ.", "data": [{"substance": "i53: UbvG08 with C-terminal di-glycine removed and I44A mutation; genetically encoded inhibitor of 53BP1", "values": [{"measurement": "Stimulation of HDR by ssODNs, BFP-to-GFP conversion", "setting": "[1]", "result": "1.3-1.4 fold"}, {"measurement": "Homologous recombination in DR-GFP gene conversion assay after AAV-mediated delivery", "setting": "[2]; AAV-DJ delivery, versus Flag-i53-DM", "result": "stimulate homologous recombination"}, {"measurement": "Gene conversion in DR-GFP assay (comparison in words)", "setting": "[2]; SCR7 at 1 μM, i53 by plasmid expression", "result": "more potent inducer of gene conversion; also recorded: stimulated gene conversion more than 53BP1 depletion by siRNA"}]}]}
